Two substances from publication PMC2811017 can be followed below.

Assay in all cases: ITC
Background: Isothermal titration calorimetry measures the heat released or taken up as one component is titrated into another.

For assay [1], the target named is full-length human eRF3a (GSPT1) (human).
For assay [2], the target named is eRF1:eRF3 complex (human) (UniProt P62495).
Assay [3] concerns the target full-length human eRF3a (GSPT1) (human). This is another data set of the same source.

pKd: −log10 of the molar value. Read-outs that look alike come from different tables or passages of the source.

What is called pKd is the Kd on a negative log10 scale, so that one unit is a factor of ten. Regarding “human 6His cytoplasmic poly(A)-binding protein (PABP) (from UniProt P11940 1-636) (natural protein)”, in assay [1], the pKd was 6.15, the dH was -30.3 kcal/mol and the stoichiometry N (PABP per eRF3) is 0.5. In assay [2], this substance had a pKd of 6.15, a dH of -26.3 kcal/mol and a stoichiometry N (PABP per eRF3) of 0.71.
On to “human 6His eRF1 (from UniProt P62495 1-437) (natural protein)”, for which the Ka amounted to 4.4e+06 M⁻¹ in assay [1] and 1.1e+06 M⁻¹ in assay [3]. Moreover, the dH is -6.1 kcal/mol in assay [1] and -10.8 kcal/mol in assay [3].
